Legend:
[1] = biological target: T1, FLAG-tagged full-length NCL (NCL-FL 1-710) (UniProt P19338 1-710); assay: ELISA; saturation binding: FLAG-NCL-FL from HEK293T whole cell lysate captured on anti-FLAG antibody-coated plate; TS5-p45 titrated, 4 C overnight; anti-His detection; conditions: one partner purified
T1 construct: Nucleolin (NCL), residues 1-710, in pCMV-Tag2; the length of 710 residues fits human nucleolin; source: HEK293T, transiently transfected, in whole cell lysate; not shown: FLAG, N-terminal, kept
T1 sequence (P19338 whole entry, the tested form may be a part): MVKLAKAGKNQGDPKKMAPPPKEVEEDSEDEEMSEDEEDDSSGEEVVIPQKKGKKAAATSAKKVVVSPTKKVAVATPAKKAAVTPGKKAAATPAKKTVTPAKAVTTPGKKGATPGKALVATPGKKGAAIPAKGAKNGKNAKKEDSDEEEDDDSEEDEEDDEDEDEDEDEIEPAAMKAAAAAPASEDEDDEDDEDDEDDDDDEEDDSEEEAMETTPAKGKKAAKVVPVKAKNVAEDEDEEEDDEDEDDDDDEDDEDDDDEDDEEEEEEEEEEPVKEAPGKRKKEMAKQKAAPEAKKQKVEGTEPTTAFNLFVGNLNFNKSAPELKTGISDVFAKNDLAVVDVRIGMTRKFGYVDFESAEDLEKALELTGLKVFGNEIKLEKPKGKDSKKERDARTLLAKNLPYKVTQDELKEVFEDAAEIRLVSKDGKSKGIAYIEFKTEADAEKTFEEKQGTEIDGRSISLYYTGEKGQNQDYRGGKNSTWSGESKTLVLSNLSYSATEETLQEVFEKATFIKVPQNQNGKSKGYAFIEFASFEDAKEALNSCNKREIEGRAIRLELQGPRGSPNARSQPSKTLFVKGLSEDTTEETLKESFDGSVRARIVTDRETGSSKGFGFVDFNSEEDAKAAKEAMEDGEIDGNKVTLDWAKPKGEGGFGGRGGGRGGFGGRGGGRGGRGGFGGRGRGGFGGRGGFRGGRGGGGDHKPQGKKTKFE

[2] = biological target: T2, Recombinant human NCL (FLAG-tagged, full length) (human, UniProt P19338 1-710); assay: SPR; Biacore T200, CM5 chip; recombinant NCL captured by amine-coupled anti-NCL antibody; TS5-p45 as analyte, five dilutions, single-cycle kinetics; 25 C; HBST (10 mM HEPES, 150 mM NaCl, 50 uM EDTA, pH 7.4, 0.05% Tween-20); 1:1 model; conditions: both partners purified
T2 construct: Nucleolin (NCL), human, full length; also called rhNCL; recombinant NCL; source: bought: OriGene (TP319082)
T2 sequence (P19338 whole entry): as the sequence (P19338 whole entry, the tested form may be a part) above

Kd [1]: ~26 nM
Kd [2]: ~28 nM
B1: Recombinant human TS5-p45 (C-terminal His-tagged, Ser262-Pro622 truncate of ADAMTS5) (domain or fragment, UniProt Q9UNA0 262-622, looked up)
chain: SISRARQVELLLVADASMARLYGRGLQHYLLTLASIANRLYSHASIENHIRLAVVKVVVLGDKDKSLEVSKNAATTLKNFCKWQHQHNQLGDDHEEHYDAAILFTREDLCGHHSCDTLGMADVGTICSPERSCAVIEDDGLHAAFTVAHEIGHLLGLSHDDSKFCEETFGSTEDKRLMSSILTSIDASKPWSKCTSATITEFLDDGHGNCLLDLPRKQILGPEELPGQTYDATQQCNLTFGPEYSVCPGMDVCARLWCAVVRQGQMVCLTKKLPAVEGTPCGKGRICLQGKCVDKTKKKYYSTSSHGNWGSWGSWGQCSRSCGGGVQFAYRHCNNPAPRNNGRYCTGKRAIYRSCSLMPCP
notes: ADAMTS5 (A Disintegrin and Metalloproteinase with Thrombospondin Motifs 5, aggrecanase-2), human, residues Ser262-Pro622; also called 45 kDa truncate of ADAMTS5; source: bought: R&D Systems (2198-AD-01M); not shown: His tag, C-terminal, kept
